Where no end group is shown, it is not given here.
Assays:
[1] = target: T1, HER2 recombinant human protein (human, UniProt P04626 23-652, limits assumed); assay: SPR, HER2 immobilized, peptide as analyte, 1:1 model
T1 construct: Covalently attached to a carboxymethylated dextran SPR chip by EDC/NHS; also called HER2 protein; human epidermal growth factor receptor 2
Procedure: Then, the chip was blocked by passing EA for 8 minutes at a rate of 10 μL/min. […] Triplicate determinations were done at each concentration. The bound surface was regenerated by sequential injections of 10 mM glycine in PBST (pH 2.5).
The sensorgrams from SPR were globally treated using Scrubber 2® software where all traces were zeroed, cropped, aligned, and referenced. Kinetic constants ka and kd were determined by global fitting analyses of the titration curves using the 1:1 Lagmurian interaction model taking into account the mass transport. The equilibrium dissociation constant (KD) was calculated from the kd/ka ratio.
Both kinetic constants ka and kd were determined by global fitting analyses of the titration curves using the 1:1 Lagmurian interaction model in software Scrubber.

[2] = target: HER2 on MDA-MB-361 and ZR-75-1 cells (human) (UniProt P04626); assay: flow cytometry, FITC-labelled peptide 10 µM, ZR-75-1 cells (blank cells 3.2±0.4)
[3] = target: HER2 on MDA-MB-361 and ZR-75-1 cells (human) (UniProt P04626); assay: flow cytometry, FITC-labelled peptide 10 µM, MDA-MB-361 cells (blank cells 4.5±0.2)
Bovine serum albumin = target: T2, Bovine serum albumin (bovine, UniProt P02769 25-607); assay: SPR, BSA immobilized, peptide as analyte
T2 construct: Immobilized control protein in SPR; also called BSA
T2 sequence (P02769 25-607 limits assumed): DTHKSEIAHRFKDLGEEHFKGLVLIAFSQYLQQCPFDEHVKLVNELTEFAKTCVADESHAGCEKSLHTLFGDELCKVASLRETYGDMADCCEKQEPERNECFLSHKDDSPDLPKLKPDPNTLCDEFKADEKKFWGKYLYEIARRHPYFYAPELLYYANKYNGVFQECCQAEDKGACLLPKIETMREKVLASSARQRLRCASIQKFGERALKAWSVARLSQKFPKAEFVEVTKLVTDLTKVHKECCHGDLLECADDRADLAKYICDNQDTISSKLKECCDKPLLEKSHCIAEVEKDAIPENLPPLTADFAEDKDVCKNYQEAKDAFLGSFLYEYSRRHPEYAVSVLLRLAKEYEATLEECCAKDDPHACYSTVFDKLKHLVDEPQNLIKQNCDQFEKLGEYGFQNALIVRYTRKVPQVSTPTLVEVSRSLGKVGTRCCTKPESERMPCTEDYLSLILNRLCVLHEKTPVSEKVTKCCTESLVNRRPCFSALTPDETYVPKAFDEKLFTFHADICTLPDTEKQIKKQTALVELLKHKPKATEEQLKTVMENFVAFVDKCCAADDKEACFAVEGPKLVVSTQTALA

Recombinant human EGFR [4] = target: T3, Recombinant human EGFR (human, UniProt P00533 25-645, limits assumed); assay: SPR, EGFR immobilized, peptide as analyte, 1:1 model
T3 construct: Immobilized by amine coupling on a carboxymethyl dextran SPR chip; also called epidermal growth factor receptor; surface-immobilized EGFR
Procedure: (§1) A carboxymethyl dextran gold sensor chip was activated by N-hydroxysuccinimide (NHS) and N-ethyl-N″-[3-(diethylamino)propyl] carbodiimide (EDC) at 25° C. using phosphate buffered saline pH 7.4 with 0.05% tween 20 as running buffer. […] Unreactive sites were blocked by flowing over the chip 1 M ethanolamine pH 8.5 at 10 μL/min for 8 minutes. […] The resulting sensograms were globally fitted using Scrubber2 software (BioLogic Software, Campbell, Australia) in a 1:1 binding model to determine the association rate (kₒₙ), dissociation rate (kd or koff), and dissociation constant KD.

Recombinant human EGFR [5] = target: T3, Recombinant human EGFR; assay: SPR, EGFR immobilized on the chip, scrambled peptide Pep25 injected; concentrations not given
[6] = target: T4, EGFR on A431 and MDA-MB-468 cells (UniProt P00533 25-1210, limits assumed); assay: confocal microscopy of cells incubated with FITC-labelled scrambled peptide for 30 min at 37 C
T4 construct: whole, on cells; also called EGFR overexpressing cell lines; cells which overexpress EGFR
Procedure: For binding/internalization studies, 5×10⁵ cells were seeded in cover slips in 6 well culture plates overnight. […] Cells were fixed with 4% paraformaldehyde and cover slips were mounted on slides which contain a drop of SlowFade®. Cells were then imaged with an inverted Leica. DMIRE2 fluorescence microscope (Leica Biosystems Richmond Inc., Richmond, USA) using a Yokogawa CSUX1 confocal scanner unit. […] Cells were then centrifuged at 500 g for 5 min. Supernatant was removed and cell pellets were re-suspended in FACS solution. The cell suspension was then analyzed on a Beckman Coulter flow cytometer and data were analyzed using the Cell Questpro. A total of 10000 events were collected monitoring FITC.

Recombinant human EGFR [7] = target: T3, Recombinant human EGFR; assay: SPR, EGFR immobilized
Procedure: as §1

[8] = target: T4, EGFR on A431 and MDA-MB-468 cells; assay: cell-based or functional assay

Row | Binder | Kd [1] | binding result (Bovine serum albumin) | Kd (Recombinant human EGFR [4]) | koff (Recombinant human EGFR [4]) | kon (Recombinant human EGFR [4]) | further results
1 | VGYDTGLRAPNSVGSTKQ (not fully specified, Designed pertuzumab mimic peptide; Unlabelled in SPR; FITC-labelled in cell assays) [HER2-PEP7] | 93 nM |  |  |  |  | 
2 | TSPQGYPNDAGFLGRESTN (not fully specified, Unlabelled in SPR; FITC-labelled in cell assays; also called control peptide; FITC-HER2-PEP22) [HER2-PEP22] | 138000 nM |  |  |  |  | MFI [2]: 19.6 MFI; MFI [3]: 22.1 MFI; koff [1]: 0.0181 s⁻¹; kon [1]: 131 M⁻¹ s⁻¹
3 | PGNDTGLSRAPENSGFTYQ (not fully specified, Designed pertuzumab mimic peptide; Unlabelled in SPR; FITC-labelled in cell assays) [HER2-PEP21] | 56 nM |  |  |  |  | 
4 | SGEWAYDGYEPNFG (also: FITC label in cell assays, position not given here, Scrambled negative control; Unlabelled in SPR; FITC-conjugated in the cell assays; also called scrambled peptide; scrambled antibody mimic) [Pep25] |  |  |  |  |  | binding result (Recombinant human EGFR [5]): no binding; binding result [6]: no binding
5 | WSGENGPGFYDYEA (also: auristatin E (as 5-benzoylpentanoic ester) joined through a maleimidocaproyl hydrazone linker to a free thiol of the peptide, thiol position not given here) [Pep11-auristatin E PDC] |  |  |  |  |  | IC50 of cytotoxicity (sulforhodamine B assay, 72 h), A431 cells [8]: 0.0026 nM; IC50 of cytotoxicity (sulforhodamine B assay, 72 h), MDA-MB-468 cells [8]: 0.0013 nM

The next lines start with results.

Row | Kd [1] | binding result (Bovine serum albumin) | Kd (Recombinant human EGFR [4]) | koff (Recombinant human EGFR [4]) | kon (Recombinant human EGFR [4]) | Binder | further results
6 |  | no binding | 7200 nM | 0.103 s⁻¹ | 14300 M⁻¹ s⁻¹ | AEYDFYGPGNEGSW (also called No. 24) [Pep24] | 
7 |  | no binding | 595 nM | 0.0259 s⁻¹ | 43500 M⁻¹ s⁻¹ | WSGENGPGTFYDYEA (also called EGFR-PEP22; No. 22) [Pep22] | 
8 |  | no binding | 252 nM | 0.0252 s⁻¹ | 100000 M⁻¹ s⁻¹ | WSGENGPGFYDYEA (not fully specified, Designed cetuximab mimic peptide for EGFR; Unlabelled in SPR; also called EGFR-PEP11; FITC-Pep11) [Pep11] | fold KD relative to cetuximab (Recombinant human EGFR [7]): ~50 fold; IC50 of cytotoxicity (sulforhodamine B assay, 72 h), A431 cells [8]: 388 nM; IC50 of cytotoxicity (sulforhodamine B assay, 72 h), MDA-MB-468 cells [8]: 420 nM
9 |  | no binding | 4800 nM | 0.00581 s⁻¹ | 1210 M⁻¹ s⁻¹ | WSGENGPGYFDYEA (Designed cetuximab mimic peptide for EGFR, made by synthesis; also called No. 6) [Pep6] | 
